The term Kd denotes the constant that tells how readily two partners part at equilibrium. For orientation: koff means the first-order rate constant of dissociation. One may read the kon as the rate constant with which the complex forms.

The target in this test is T1, recombinant human DAF (human, UniProt P08174 35-353, limits assumed).
T1 construct: also called recombinant human decay accelerating factor; CD55
T1 sequence (looked up): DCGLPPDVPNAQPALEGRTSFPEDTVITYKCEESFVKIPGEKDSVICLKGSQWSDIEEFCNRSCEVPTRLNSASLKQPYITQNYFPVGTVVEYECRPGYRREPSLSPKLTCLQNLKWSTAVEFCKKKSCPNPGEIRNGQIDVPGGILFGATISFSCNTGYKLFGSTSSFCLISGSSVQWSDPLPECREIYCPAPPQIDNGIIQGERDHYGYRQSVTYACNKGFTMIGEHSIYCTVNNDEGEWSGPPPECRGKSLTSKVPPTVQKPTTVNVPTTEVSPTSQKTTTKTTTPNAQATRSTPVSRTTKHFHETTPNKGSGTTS
Description: SPR (BIACORE 1000), recombinant human DAF on CM-5 chip, LU30 scFv 25-100 nM injected.

B1: LU30 scFv fragment (scFv, V domains shown)
VH: QVKLQESGGGLVQPGGSLKLSCAASGFTFSGYGMSWIRQTPDKRLEWVATINSGGSYTYYSDSVKGRFTISRDNVKNTLYLQMSSLKSEDTAMYYCARRNGTLYYYLMDYWGRGTLVTVSS
VL: QSVLTQPPSASGSPGQSVTISCTGTSSDVGGYNYVSWYQQHPGKAPKFMIYDVSKRPSGVSNRFSGSKSGNTASLTISGVQAEDEADYYCSSYTSASTVIFGGGTKLTVL
notes: Human scFv from a naive phage library (Vaughan et al.), secreted from E. coli and purified by its His tag; The full scFv is said to be under GenBank AF117206; also called clone LU30
On to B1, for which the Kd turned out to be 13 nM, the koff is 0.0045 s⁻¹ and the kon was 340000 M⁻¹ s⁻¹.

The record behind these values is EP1591456A1 (Genentech Inc., dated 2005).
